Source: the nanobody polyreactivity screen of Harvey et al. (2022)

Assay: yeast display, Sf9 membrane polyspecificity reagent, FACS + sequencing; frameworks hold sequencing errors
Procedure, shortened: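 Galactose-induced (36–48 hours) yeast carrying a synthetic nanobody display library were exposed to 10% biotinylated, detergent-solubilized Sf9 membrane reagent at 4 °C for 1 hour. FACS followed streptavidin microbead enrichment, using low and high (top ~1%) gates for expression (anti-HA) and reagent binding (streptavidin). Colony PCR, MiSeq 2 × 250 sequencing and CDR-length filtering followed. Labels for polyreactivity reflect the gate of origin.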

Sequence	polyreactivity (PSR sort gate)
QVQLVDSGGGLVQAGGSLRLSCAASGRTFIFYAMGWSRQAPGKERELVAAISSGGSTDYADSVKGRFTISRDNAKNTVYLQMNSLKPEDTAVYFCKADTFQYPSTYDYWGQGNQVTVSS	low polyreactivity
QVQLVDSGGGLVQAGGSLRLSCAASGRTFRSNAMGWYRQAPGKERELVAAITGSGGRTYYADSVKGRFTISRDNAKNTVYLQMNSLKPEDTAVYYCAARGRAHWHYDDWGQGTQVTVSS	high polyreactivity
QVQLVDSGGGLVQAGGSLRLSCAASGRTIHYYAMGWYRQAPGKEREVVAVISSGGSTYYADSVKGRFTISRDNAKNTVYLQMNSLKPEDTAVYYCAALSSRTYKTGYYTYDYWGQGTQVTVSS	low polyreactivity
QVQLVDSGGGLVQAGGSLRLSCAASGSIFGSNAMGWYRQAPGKERELVAAITWSDGSTYYADSVKGRFTISRDNAKNTVYLQMNSLKPEDTAVYYCATDYGYSWYDYWGQGTQVTVSS	low polyreactivity
QVQLVDSGGGLVQAGGSLRLSCAASGSIFVSYTMGRYRQAPGKEREFVAAITKSGGSTYYADSVKGRFTISRDNAKNTVYLQMNSLKPEDTAVYYCAADWLHYVYEGYDYWGQGTQVTVSS	low polyreactivity
QVQLVDSGGGLVQAGGSLRLSCAASGSIILLNAMGWYRQAPGKEREMVARIRINGGSTYYADSVKGRFTISRDNAKNTVYLKMNSLKPEDTAVYYCAADDTGPYSNWYDYWGQGTQVTVSS	low polyreactivity
QVQLVDSGGGLVQAGGSLRLSCAASGSILLYYTMGWYRPAPGKERELVATMSSSGGSTYYADSVKGRFTISRDNAKNTVYLQMNSLKPEDTAVYYCNADYIYYGTTYEYWGQGTQVTVSS	low polyreactivity
QVQLVDSGGGLVQAGGSLRLSCAASGSNFVWYAMGWYIQAPGKEREMVAAITWSGGSTYYADSVKGRFTISRDNAKNTVYLPMNSLKPEDSAVYYFNAVSYRYYSKLGSWGQGTQVTLSS	high polyreactivity
QVQLVDSGGGLVQAGGSLRLSCAASGSTFKIYAMGWYRQAPGKERELVARITGRGGSTYYADSVKGRFTISRDNAKNTVYLQMNSLKPEDTAVYYCAAAKRYYSEMYWGQGTQVTVSS	high polyreactivity
QVQLVDSGGGLVQAGGSLRLSCAASGSTFLAYAMGSSRQAPGKQTELVAAITWNSCSSTFYADSVKGRFTISRDNAKNSVYLQMNSLKPEDTAVYYCNADVPSPAYYGDGTPYREDNYWGQGTQVTVSS	low polyreactivity
QVQLVDSGGGLVQAGGSLRLSCAASGSTFSRYAMGWYRQARGKERELVAAITDGGDSTYYADSVKGRFTISRDNAKNTVYLQMNSLKPEDTAGYYCNADRLQYGRTPHYDYWGQGTQVTVSS	low polyreactivity
QVQLVDSGGGLVQAGGSLRLSCAASGSTFSSYAMGWYRQAPGKERELVDVITRGTSTNYADSVKGRFTISRDNAKNTVYLQMNSLKPEDTAVYYCNSRRGSRRFGYCGQGTQVTVSS	high polyreactivity
QVQLVDSGGGLVQAGGSLRLSCAASGSTFSVYAMVWYRQAPGKERELVAAISKRGTSTYYADSLKGRFTISRDYAKNTLYLQKNSLKPEDTAVYYCAAEAYRPSPFYYWGQGTQVTFSS	high polyreactivity
QVQLVDSGGGLVQAGGSLRLSCAASGSTFVYYAMGWYRQAPGKERELVAAISSGGRTYYADSVKGRFTISRDNAKNTVYFQMNSLKPEDTAVYYCATYPRYSKSPGYDSWGQGTQVTVSS	high polyreactivity
QVQLVDSGGGLVQAGGSLRLSCAASGYIFHLYGMGWYRQAPGKERELVARISYRGGSTYYADSVKGRFTISRDNAKNTVYLQMHSLKPEDTAVYYCAKDYYKHYYWGQGTQVTVSS	high polyreactivity
QVQLVDSGGGLVQAGGSLRLSCAASGYIFYFNAMGWYRQAPGKEREMVAAISDRDDSTYYADSVKGRFTISRDNAKNTVYLQMNSLKPEDTAVYYCAADGYTYVDDPYDYWGQGTQVTVSS	low polyreactivity
QVQLVDSGGGLVQAGGSLRLSCAASVQTIYQKAMGWYRPAPGKERELVAAITRSGGSTRYADSVKGRFTISRDNAKNTVYLEMSSLKPEDTSVFYCNARYRIGSWYEFGSWGQGTQVTVSS	high polyreactivity
QVQLVDSGGGLVQAGGSLRLSCAAYGRIFGIYTMGWYRQAPGKERELVAAIRFSGSRTYYADSVKGRFTISRDNAKNTVYLQMNSLKPEDTAVYYCNADWWFYRLRNEYWGQGTQVTVSS	high polyreactivity
QVQLVDSGGGLVQAGGSLRLSCADSGSIFPANVMGWYRQAPGKERELVAAISRGGSTYYADSVKGRFTISRDNAKNTVYLQMNSLKPEDTAVYYCAVAFRGSYRPAYYYWGQGTQVTVSS	high polyreactivity
QVQLVDSGGGLVQAGGSLRLSCASSGIIFGYYAMGWYRPAPGKERELVAGITYRTGSTDYADSVKGRFTISRDNAKNTVYFQMNSLKPEDTAVYFCAATQDKRKYSSCYYYWGQGTQVTVSS	high polyreactivity
QVQLVDSGGGLVQAGGSLRLSCDASGSTFRGTVMGWYRQAPGKERELVAGIYSGGSTYYADSVKGRFTISRDNAKNTVYLQMNSLKPEDTAVYYCAAYRRQHIIYNDWGQGTQVTVSS	high polyreactivity
